Article PMC6929626, “PET/MRI enables simultaneous in vivo quantification of β-cell mass and function” (Theranostics, 2020)

Biological target: T1, GLP-1R (Mus musculus, UniProt O35659)
T1 construct: high expression level of glucagon-like-peptide-1 receptor (GLP-1R) on the surface of β-cells enables their specific detection and quantification in the native pancreas; from tissue; host or cells: pancreas and insulinomas of living control and RIP1-Tag2 mice
T1 sequence (O35659 22-463): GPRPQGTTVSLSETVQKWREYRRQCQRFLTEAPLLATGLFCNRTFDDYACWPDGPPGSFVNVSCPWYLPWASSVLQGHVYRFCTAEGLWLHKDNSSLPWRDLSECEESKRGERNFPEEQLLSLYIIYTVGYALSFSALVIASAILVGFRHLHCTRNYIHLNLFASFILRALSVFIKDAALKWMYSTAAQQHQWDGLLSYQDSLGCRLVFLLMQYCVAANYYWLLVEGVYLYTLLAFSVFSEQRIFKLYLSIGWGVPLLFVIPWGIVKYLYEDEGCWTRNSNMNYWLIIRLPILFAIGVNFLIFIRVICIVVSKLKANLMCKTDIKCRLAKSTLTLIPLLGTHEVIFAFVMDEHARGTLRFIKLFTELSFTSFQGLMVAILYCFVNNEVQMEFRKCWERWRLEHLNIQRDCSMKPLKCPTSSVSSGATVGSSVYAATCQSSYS
Design: species or system mice
Details: in vivo
Method: In brief, mice were fasted for 4-6 hours and anesthetized with 1-2% isoflurane/O2 gas mixture (Vetland, Louisville, KY, USA) before the in vivo measurements. A tail vein catheter was initially placed for the co-injection of 50 µL of tracer solution (0.12 MBq/g bodyweight) and 50 µL of MnCl2:Bicine solution (75 µmol/kg body weight). The animals were placed in supine position on the bed in order to attenuate the motion artifacts rising from the respiratory movements. Thus, [^64Cu]Ex4 and MnCl2 solution were co-injected i.v. as a bolus a few seconds after the beginning of dynamic PET measurements. […] PET quantification was performed by 20-min static frames acquired simultaneously with 7T MRI scanner using a compatible PET-insert or consecutively using an Inveon-PET scanner (Inveon Dedicated PET, Siemens Healthineers, Knoxville, TN, USA). […] During the acquisition, we monitored the breathing with an MR-compatible breathing sensor. […]
The volume of interest (VOI) for the entire pancreas (Pancreas^Control; Pancreas^RIP1-Tag2) and the detected insulinomas (Insulinomas^RIP1-Tag2) were manually drawn in Inveon Research Workplace (Siemens Heathineers) after co-registration of the PET images. […] The co-registered VOIs were exported and analyzed in MATLAB (R2013b; The MathWorks, Natick, MA, USA) using an in-house script. […] For the quantification, we considered voxels with R1 values between 0.4 and 10 s^-1. […]

Substance: [^64Cu]Cu-NODAGA-^40Lys-Exendin-4 [[^64Cu]Ex4]
- dynamic PET curve of pancreatic uptake: stable pancreatic uptake after 20 min until 1 h
